Results on one sequence are retold here after publication PMC8002523.

One data set has as its system immunoglobulin G (IgG). As to the kind of experiment: electrochemical displacement from graphene oxide (SWV). The following applies: Binding buffer, pH and temperature not given in the material; aptamer stock 2.0 uM in sterile deionized water; ferricyanide redox probe; fluorescence ex 480 / ….
In the next data set the test system is hemoglobin (Hb). The data set is described as above. To be noted: Binding buffer, pH and temperature not given in the material; aptamer stock 2.0 uM in sterile deionized water; ferricyanide redox probe; fluorescence ex 480 / ….

With “TGCGGTTCGTGCGGTTGTAGTAC [Modified G8-FAM]”, the binding signal (% current response) in the data set on immunoglobulin G (IgG) is 29.5; in the data set on hemoglobin (Hb), 11.7.
